# From patent publication US20110318339A1 (FABRUS, published 2011)
# T1: rHuman Erythropoietin R/Fc Chimera, CF (Cat# 963-ER) (human, UniProt P19235 25-250)
# T1 construct: Bought from R&D Systems; also called EPO R/Fc; Epo R/Fc chimera
# T1 sequence (looked up): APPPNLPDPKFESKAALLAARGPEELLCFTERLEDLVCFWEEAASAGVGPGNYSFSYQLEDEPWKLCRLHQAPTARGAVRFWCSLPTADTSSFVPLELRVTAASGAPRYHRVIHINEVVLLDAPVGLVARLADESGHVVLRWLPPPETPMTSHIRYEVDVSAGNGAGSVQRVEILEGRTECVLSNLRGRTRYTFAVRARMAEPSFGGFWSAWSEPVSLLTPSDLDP
# B1: Fab VH1-8_IGHD2-2*01_IGHJ6*01 & L12_IGKJ1*01 (Fab, V domains shown)
# VH: QVQLVQSGAEVKKPGASVKVSCKASGYTFTSYDINWVRQATGQGLEWMGWMNPNSGNTGYAQKFQGRVTMTRNTSISTAYMELSSLRSEDTAVYYCARGGYCSSTSCYADYYYYYGMDVWGQGTTVTVSS
# VL: not shown
# Assays:
# [1] = molecular target: T2, rHuman CD44/Fc Chimera, CF (Cat# 3660-CD) (human, UniProt P16070 21-220); test: Multispot ECL; Fab 32.5 nM
# T2 construct: Bought from R&D Systems
# Procedure: (§1) An 150 μl aliquot of 1% Bovine Serum Albumin (BSA) in Tris-buffered Saline Tween (TBST) was added to each well and allowed to incubate for 30 min at 20° C. followed by washing and tap drying to completely remove any residual solution. Subsequently, a 12.5 μl aliquot of 1% BSA TBST was added to each well followed by the addition of a 12.5 μl aliquot of a purified Fab. The plate was sealed and incubated for 1 hour at 20° C. with shaking.
# (§2) Detection antibodies were prepared by individually conjugating both goat anti-human Kappa light chain polyclonal antibody (K3502-1MG, Sigma-Aldrich) and goat anti-human Lambda light chain polyclonal antibody (L1645-1 mL, Sigma-Aldrich) with Ruthenium (II) tris-bipyridine-(4-methylsulfone)-N-hydroxysuccinimide (SULFO-TAG NHS-ester, Meso Scale Discovery) according to the manufacturer's instructions. TAG-detection antibody at 25 μl was added to each well and allowed to incubate for 1 hour at 20° C. with shaking. Finally, 15 μl of Read Buffer P with Surfactant (Cat # R92PC-1, Meso Scale Discovery) was added to each well. The electrochemiluminescence was measured using a Sector Imager 2400 (Meso Scale Discovery). Data was analyzed by comparing the ECL signals for an antigen to the blank of each well. A signal to blank ratio of 4 or more was considered a “Hit” Fab.
# (§3) To confirm a “Hit” from the initial Multispot ECL screening, a Fab concentration dependent titration was carried out to determine the Fab-antigen binding affinity.
# [2] = molecular target: T3, rHuman HGF R/c-MET/Fc Chimera, CF (Cat# 358-MT/CF) (human, UniProt P08581 25-932); test: Multispot ECL; Fab 32.5 nM
# T3 construct: Bought from R&D Systems; also called HGF R/Fc; hepatocyte growth factor receptor (HGF R/c-Met)
# Procedure: as §1, §2, §3
# [3] = molecular target: T4, rHuman Notch-1/Fc Chimera, CF (Cat# 3647-TK) (human, UniProt P46531 19-526); test: Multispot ECL; Fab 32.5 nM
# T4 construct: Bought from R&D Systems
# Procedure: as §1, §2, §3
# [4] = molecular target: T1, rHuman Erythropoietin R/Fc Chimera, CF …; test: Multispot ECL; Fab 32.5 nM
# Procedure: as §1, §2, §3
# [5] = molecular target: T5, rHuman IGF-1 sR, (IGF-1 sR), CF (Cat# 391-GR) (human, UniProt P08069 31-932); test: Multispot ECL; Fab 32.5 nM
# T5 construct: Bought from R&D Systems; also called insulin-like growth factor-1 soluble receptor
# Procedure: as §1, §2, §3
# [6] = molecular target: T6, rHuman ErbB2/Fc Chimera, CF (Cat# 1129-ER) (human, UniProt P04626 23-652); test: Multispot ECL; Fab 32.5 nM
# T6 construct: Bought from R&D Systems; also called human epidermal growth factor 2 receptor (ErbB2)
# Procedure: as §1, §2, §3
# [7] = molecular target: T7, Recombinant Human DLL4 (Cat# 1506-D4/CF) (human, UniProt Q9NR61 27-529); test: Multispot ECL; Fab 32.5 nM
# T7 construct: Bought from R&D Systems; also called rHuman DLL4; hDLL4
# Procedure: as §1, §2, §3
# [8] = molecular target: T8, rHuman EGF R/Fc Chimera, CF (Cat# 344-ER) (human, UniProt P00533 25-645); test: Multispot ECL; Fab 32.5 nM
# T8 construct: Bought from R&D Systems; also called epidermal growth factor receptor (EGF R)
# Procedure: as §1, §2, §3
# [9] = molecular target: T2, rHuman CD44/Fc Chimera, CF (Cat# …); test: Multispot ECL; Fab 130 nM
# Procedure: as §1, §2, §3
# [10] = molecular target: T3, rHuman HGF R/c-MET/Fc Chimera, CF (Cat# …); test: Multispot ECL; Fab 130 nM
# Procedure: as §1, §2, §3
# [11] = molecular target: T5, rHuman IGF-1 sR, (IGF-1 sR), CF (Cat# …); test: Multispot ECL; Fab 130 nM
# Procedure: as §1, §2, §3
# [12] = molecular target: T6, rHuman ErbB2/Fc Chimera, CF (Cat# …); test: Multispot ECL; Fab 130 nM
# Procedure: as §1, §2, §3
# [13] = molecular target: T7, Recombinant Human DLL4 (Cat# 1506-D4/CF); test: Multispot ECL; Fab 130 nM
# Procedure: as §1, §2, §3
binder,measurement,setting,value
B1,ECL signal,[1],573
same,ECL signal,[2],525
same,ECL signal,[3],706
same,ECL signal,[4],673
same,ECL signal,[5],561
same,ECL signal,[6],556
same,ECL signal,[7],2990
same,ECL signal,[8],645
same,ECL signal,[9],1750
same,ECL signal,[10],1880
same,ECL signal,[11],1970
same,ECL signal,[12],1530
same,ECL signal,[13],7740
